In PMC4465237 (The Biochemical journal, 2013):

Molecular target: T1, FLAG-hSIRT1-FL (full length human SIRT1, FLAG-tagged) (human, UniProt Q96EB6 1-747)
T1 sequence (looked up): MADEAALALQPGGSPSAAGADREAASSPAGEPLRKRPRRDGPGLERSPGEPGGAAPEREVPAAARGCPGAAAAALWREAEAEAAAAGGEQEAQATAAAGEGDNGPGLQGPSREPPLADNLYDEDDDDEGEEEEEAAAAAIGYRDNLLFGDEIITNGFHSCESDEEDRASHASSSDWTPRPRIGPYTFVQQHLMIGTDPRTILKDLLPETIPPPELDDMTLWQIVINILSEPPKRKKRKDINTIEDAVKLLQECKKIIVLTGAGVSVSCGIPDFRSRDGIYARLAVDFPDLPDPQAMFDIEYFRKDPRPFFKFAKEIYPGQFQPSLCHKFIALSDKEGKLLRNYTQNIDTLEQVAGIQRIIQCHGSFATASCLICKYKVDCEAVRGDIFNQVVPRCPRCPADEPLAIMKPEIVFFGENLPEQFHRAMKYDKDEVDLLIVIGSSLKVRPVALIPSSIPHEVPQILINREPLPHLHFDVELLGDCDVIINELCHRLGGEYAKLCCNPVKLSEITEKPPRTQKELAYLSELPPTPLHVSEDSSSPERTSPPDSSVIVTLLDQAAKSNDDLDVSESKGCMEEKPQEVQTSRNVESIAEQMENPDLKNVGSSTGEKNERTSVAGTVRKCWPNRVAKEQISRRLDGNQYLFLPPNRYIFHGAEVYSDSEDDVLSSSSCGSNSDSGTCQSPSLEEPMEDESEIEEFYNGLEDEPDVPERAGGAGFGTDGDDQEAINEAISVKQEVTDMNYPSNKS
Assay: pull-down

B1: GST-TDG(67–308) (domain or fragment, human, UniProt Q13569 67-308, looked up)
chain: TTEPKQPVEPKKPVESKKSGKSAKSKEKQEKITDTFKVKRKVDRFNGVSEAELLTKTLPDILTFNLDIVIIGINPGLMAAYKGHHYPGPGNHFWKCLFMSGLSEVQLNHMDDHTLPGKYGIGFTNMVERTTPGSKDLSSKEFREGGRILVQKLQKYQPRIAVFNGKCIYEIFSKEVFGVKVKNLEFGLQPHKIPDTETLCYVMPSSSARCAQFPRAQDKVHYYIKLKDLRDQLKGIERNMDV
B1: binds.
